The values below come from PMC5279944.

Assay [1] addresses plasma fibronectin purified from Fn1^syn/syn mice (pFN^syn) (mouse).
Assay [2] shares this target. This is another data set of the same source.
The target is the same in assay [3]. The assay is described as follows: cross-linking; serum-starved Fn1-KO fibroblasts seeded (15, 30 and 60 min) on pFN-coated glass coverslips, spun or not spun; 1 mM DTSSP 15 min at 4°C; cross-linked fraction released with 25 mM DTT, α5 integrin western blot; cross-linked over total integrin.
Assay [4] has the same target. This is another data set of the same source.

“αIIbβ3 integrin on mouse platelets (from UniProt Q9QUM0 32-1033; O54890 26-787) (receptor)”: the adhesion of wild-type platelets under shear flow (1000/s, 10 min), pFN^syn compared to pFN^wt (fold reduction) in assay [1] amounted to 10.

Substance “α5β1 integrin, endogenous on mouse cells (Fn1-KO fibroblasts) (from UniProt P11688 45-1053; P09055 21-798) (receptor)” came in with an adhesion strength (τ50, spinning disk) of Fn1-KO cells on pFN^syn compared to pFN^wt in assay [2] of 16 % decrease. This substance also displayed a mean spreading area of Itgb3^-/- platelets seeded for 60 min on pFN^syn in assay [1] of 3.8 μm^2. Moreover, in assay [3], the α5 integrin crosslinked to FN, percent of that on pFN^wt was 60%. The same substance came in with a pY397-FAK level in Fn1-KO cells plated on pFN^syn compared to pFN^wt in assay [4] of 54 % decrease.
